# Results reported in publication doi:10.1101/312850 (bioRxiv, 2018).
# T1: E. coli methionine aminopeptidase (MetAP), type-1a, N-terminal poly-His-tagged (E. coli, UniProt P0AE18 1-264)
# T1 sequence (looked up): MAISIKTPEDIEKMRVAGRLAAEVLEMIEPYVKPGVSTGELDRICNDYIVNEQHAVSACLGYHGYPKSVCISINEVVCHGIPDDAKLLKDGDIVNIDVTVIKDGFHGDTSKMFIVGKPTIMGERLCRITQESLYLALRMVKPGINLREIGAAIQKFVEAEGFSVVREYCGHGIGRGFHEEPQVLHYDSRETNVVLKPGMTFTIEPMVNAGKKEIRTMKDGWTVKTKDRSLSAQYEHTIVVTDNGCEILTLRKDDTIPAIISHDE
# B1: E. coli peptide deformylase (PDF), N-terminal His6-tagged (enzyme, UniProt P0A6K3 1-169, looked up)
# chain: MSVLQVLHIPDERLRKVAKPVEEVNAEIQRIVDDMFETMYAEEGIGLAATQVDIHQRIIVIDVSENRDERLVLINPELLEKSGETGIEEGCLSIPEQRALVPRAEKVKIRALDRDGKPFELEADGLLAICIQHEMDHLVGKLFMDYLSPLKQQRIRQKVEKLDRLKARA
# Target: T1, E. coli methionine aminopeptidase …
# Test: cryo-EM structure
binder,measurement,value
B1,binding result,binds
